The source of these data is patent publication US20140112926A1.

For experiment [1], the target named is GST-tagged version of human FcγRIIIA (human) (UniProt P08637). In words: AlphaLISA vs biotin-huIgG, supernatant, round 2. Background: In Alpha technology, singlet oxygen from a donor bead excites a nearby acceptor bead.
The target is the same in experiment [2]. In words: AlphaLISA vs biotin-huIgG, supernatant, round 3.
The target is the same in experiment [3]. In words: AlphaLISA vs biotin-huIgG, supernatant, round 1.

Sequence of GST-tagged version of human FcγRIIIA (human) (P08637 17-208 limits assumed): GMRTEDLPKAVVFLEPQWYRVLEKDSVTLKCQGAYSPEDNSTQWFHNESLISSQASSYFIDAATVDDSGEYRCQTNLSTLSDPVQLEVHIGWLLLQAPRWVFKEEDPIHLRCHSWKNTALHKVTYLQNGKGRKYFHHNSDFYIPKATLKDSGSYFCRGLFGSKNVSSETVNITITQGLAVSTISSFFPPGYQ

In the case of “scFv-Fc/Fc, Y296L in scFv-Fc (Fc fusion)”, the % inhibition (in general, the percentage by which the read-out fell short of the control) worked out at 24.7% in experiment [1], 18.2% in experiment [2] and 23.1% in experiment [3]. In addition, the Alpha signal came to 60600 in experiment [1], 64300 in experiment [2] and 58500 in experiment [3].
In the case of “scFv-Fc/Fc, N315S in scFv-Fc (Fc fusion)”, the % inhibition worked out at 75.8% in experiment [1], 63.4% in experiment [2] and 65.8% in experiment [3]. Besides, the Alpha signal in experiment [1] came to 19500; in experiment [2], 28800; in experiment [3] it was 26000.
Turning to “scFv-Fc/Fc, F243I in dummy Fc (Fc fusion)”, the Alpha signal in experiment [1] was 25800; in experiment [2] it was 23800; in experiment [3], 29800. Also, the % inhibition in experiment [3] is 60.8%.
For “scFv-Fc/Fc, S239D in dummy Fc (Fc fusion)”, the % inhibition in experiment [1] was found to be 92.3%; in experiment [2], 87.4%; in experiment [3], 91.9%. Besides, the Alpha signal in experiment [1] came to 6160; in experiment [2], 9870; in experiment [3], 6120.
Take “scFv-Fc/Fc, M252D in dummy Fc (Fc fusion)”: the values for the % inhibition in experiment [1], in experiment [2] and in experiment [3] were 27.8%, 23.3% and 20.4%, respectively. Moreover, the values for the Alpha signal in experiment [1], in experiment [2] and in experiment [3] were 58100, 60300 and 60500, respectively.
Turning to “scFv-Fc/Fc, F243L in scFv-Fc (Fc fusion)”, the % inhibition in experiment [1] came to 28.6%; in experiment [2] it was 29.7%; in experiment [3], 39.4%. Further, the Alpha signal in experiment [1] was 57400; in experiment [2], 55200.
Regarding “scFv-Fc/Fc, K246W in dummy Fc (Fc fusion)”, the % inhibition came to 29% in experiment [1], 34.2% in experiment [2] and 20% in experiment [3]. Moreover, the Alpha signal was determined as 57100 in experiment [1], 51700 in experiment [2] and 60800 in experiment [3].
Regarding “scFv-Fc/Fc, I332E in dummy Fc (Fc fusion)”, the % inhibition in experiment [1] came to 87.7%; in experiment [2], 85.3%; in experiment [3], 85.8%. Further, the Alpha signal in experiment [1] came out at 9880; in experiment [2], 11500; in experiment [3], 10800.
“scFv-Fc/Fc, K248Y in dummy Fc (Fc fusion)”: the % inhibition in experiment [1] was determined as 36.5%; in experiment [2], 40.2%; in experiment [3], 31.5%. The Alpha signal in experiment [1] is 51000; in experiment [2], 47000; in experiment [3], 52100.
In the case of “scFv-Fc/Fc, L309E in scFv-Fc (Fc fusion)”, the results for the % inhibition in experiment [1], in experiment [2] and in experiment [3] were 73.7%, 67.6% and 67%, respectively. The substance also had an Alpha signal in experiment [1] of 21100.
For “scFv-Fc/Fc, S298C in scFv-Fc (Fc fusion)”, the % inhibition in experiment [1] turned out to be 87.1%; in experiment [2], 82.9%; in experiment [3], 84%. Also, the figures for the Alpha signal in experiment [1], in experiment [2] and in experiment [3] were 10400, 13400 and 12200, respectively.
“scFv-Fc/Fc, K290G in dummy Fc (Fc fusion)”: the % inhibition in experiment [1] amounted to 75%; in experiment [2], 51%; in experiment [3], 73%. In addition, the Alpha signal in experiment [1] came out at 20100; in experiment [3], 20600.
In the case of “scFv-Fc/Fc, S239D in scFv-Fc (Fc fusion)”, in experiment [1], the % inhibition was 79%. Besides, the results for the Alpha signal in experiment [1], in experiment [2] and in experiment [3] were 16900, 21400 and 24300, respectively.
For the substance “scFv-Fc/Fc, no substitution (charge pair mutations only) (Fc fusion)”, the % inhibition in experiment [1], in experiment [2] and in experiment [3] was 0% each time. In addition, the values for the Alpha signal in experiment [1], in experiment [2] and in experiment [3] were 80400, 78600 and 76000, respectively.
As to “scFv-Fc/Fc, E258S in dummy Fc (Fc fusion)”, the % inhibition in experiment [1] worked out at 28%; in experiment [2], 21.6%; in experiment [3], 20.6%. Further, the Alpha signal in experiment [1] amounted to 57900; in experiment [2] it was 61600; in experiment [3] it was 60300.
Consider “scFv-Fc/Fc, K288I in scFv-Fc (from UniProt P0DOX5 218-449; P0DOX5 218-449) (Fc fusion)”, for which the figures for the Alpha signal in experiment [1], in experiment [2] and in experiment [3] were 57500, 57300 and 56400, respectively. Further, the % inhibition in experiment [3] worked out at 25.8%.
For “scFv-Fc/Fc, L309S in scFv-Fc (Fc fusion)”, the % inhibition amounted to 23.5% in experiment [1], 19.1% in experiment [2] and 20.4% in experiment [3]. The Alpha signal in experiment [1] was 61500; in experiment [2] it was 63500; in experiment [3], 60500.
With “scFv-Fc/Fc, R255S in dummy Fc (Fc fusion)”, the % inhibition was 38% in experiment [1], 22.3% in experiment [2] and 21.9% in experiment [3]. In addition, the Alpha signal in experiment [1] was 49800; in experiment [2], 61000; in experiment [3], 59300.
Take “scFv-Fc/Fc, K290F in dummy Fc (Fc fusion)”: the % inhibition in experiment [1] is 31.1%; in experiment [2], 23.5%; in experiment [3], 23.1%. Further, the results for the Alpha signal in experiment [1], in experiment [2] and in experiment [3] were 55400, 60100 and 58500, respectively.
Consider “scFv-Fc/Fc, K290Q in scFv-Fc (Fc fusion)”, for which the % inhibition in experiment [1] came to 54.4%; in experiment [2] it was 48.8%; in experiment [3] it was 50.8%. Further, the results for the Alpha signal in experiment [1], in experiment [2] and in experiment [3] were 36700, 40300 and 37400, respectively.
“scFv-Fc/Fc, S239E + K340N in dummy Fc (Fc fusion)”: the % inhibition worked out at 85.4% in experiment [1], 66.7% in experiment [2] and 84.9% in experiment [3]. For the same substance, the Alpha signal in experiment [1] came out at 11800; in experiment [2] it was 26100; in experiment [3], 11500.
Take “scFv-Fc/Fc, K334V in dummy Fc (Fc fusion)”: the % inhibition in experiment [1] worked out at 66.5%; in experiment [2], 61.6%; in experiment [3], 64.4%. In addition, the results for the Alpha signal in experiment [1], in experiment [2] and in experiment [3] were 26900, 30200 and 27100, respectively.
Consider “scFv-Fc/Fc, K334V + D413N in dummy Fc (Fc fusion)”, for which the % inhibition in experiment [1] turned out to be 73.4%; in experiment [2], 67.6%; in experiment [3] it was 73.4%. Further, the Alpha signal was determined as 21400 in experiment [1], 25400 in experiment [2] and 20200 in experiment [3].
